Test results reported in article PMC9737693, “Efficient Production of Fc Fusion Proteins in the Cytoplasm of Escherichia coli: Dissecting and Mitigating Redox Heterogeneity” (International Journal of Molecular Sciences, 2022).

Molecular target: the molecule itself
Experiment: non-reducing SDS-PAGE; purified proteins, non-reduced and trapped with 25 mM NEM at room temperature for 10 min, SDS-PAGE, Coomassie Blue R-250; dimer seen as a covalently (disulfide) linked band

B1: IgG1 CH2 domain with the hinge region (T106-A222) (domain or fragment, human, UniProt P01857 106-222, looked up)
chain: THTCPPCPAPELLGGPSVFLFPPKPKDTLMISRTPEVTCVVVDVSHEDPEVKFNWYVDGVEVHNAKTKPREEQYNSTYRVVSVLTVLHQDWLNGKEYKCKVSNKALPAPIEKTISKA
notes: human IgG1 hinge region and CH2 domain, residues T106-A222 of immunoglobulin heavy constant gamma 1, amplified from pAAT44; The dimer is told only for the protein made in the presence of CyDisCo (intermolecular hinge disulfide); also called IgG1 CH2 domain with hinge; hinge region fused to the CH2 domain; source: E. coli BL21(DE3) cytoplasm with CyDisCo (Erv1p, PDI), purified (cobalt IMAC)
B1: binds.
